Experimental data: paper PMC3406662 (The Journal of Biological Chemistry, 2012)

Target: the molecule itself
Assay: AUC

B1: His6-Dma1(187–end) (domain or fragment, S. pombe, UniProt Q10322 187-267, looked up)
chain: SGPPECCICLMPVLPCQALFVAPCSHSYHYKCIRPTLNESHPYFSCFICRKYHDLEAPVEEGDESLNDLLRNATVKDDASE
stoichiometry N: 2
